Experimental findings from paper PMC7015052, “Transferrin plays a central role in coagulation balance by interacting with clotting factors” (Cell Research, 2019) are described below.

Test [1] concerns the target T1, apo-transferrin (human, UniProt P02787 20-698).
T1 construct: transferrin (serotransferrin), human, iron-free state; Several paragraphs and legends say only 'transferrin' where the text says apo-transferrin for the same panels; rows told of 'transferrin' alone are tied to this molecule; also called Tf; TRF; source: bought: Sigma (purity greater than 98%)
The test can be described thus: SPR. The conditions noted are these: plateau of the association phase, read off a plot.

Test [2] addresses T1, apo-transferrin. The test can be described thus: SPR; BIAcore 2000; apo-transferrin or holo-transferrin immobilised on a CM5 chip (~2000 RU); serial concentrations of thrombin, FXIIa, fibrinogen, AT, prothrombin or FXII in Tris–HCl buffer (20 mM, pH 7.4) at 10 μL/min.
A further test has as its target human α-thrombin (human) (UniProt P00734).
Test [3] addresses T1, apo-transferrin. The test can be described thus: SPR; CM5 chip coupled with 100 RU of transferrin; binding molar ratio from the saturation RU of the flowing phase and the RU of the immobilised phase. The conditions noted are these: for stoichiometry N: both partners purified.
Test [4] concerns the target T1, apo-transferrin. The test can be described thus: SPR; transferrin with synthetic peptides (TH16, FX18, RCL19 and their scrambled controls). The settings on record: both partners purified.

Regarding “wild-type thrombin (from UniProt P00734) R117A; R122A”, the response with apo-transferrin [1] (25 nM trace, parent: est. 9) is 2.5 RU; with apo-transferrin [1] (50 nM trace, parent: est. 14) it was 5.5 RU.
In the test with apo-transferrin [2], FXII (natural protein) gave a Kd of 40 nM, a koff of 0.0012 s⁻¹ and a kon of 30000 M⁻¹ s⁻¹.
For “apo-transferrin (from UniProt P02787 20-698) (natural protein)”, in the test with human α-thrombin (human), the enhancement of the enzymatic activity of thrombin (chromogenic substrate) by transferrin at 0.2, 1 and 5 μM was determined as 1.8 fold; the increase of fibrinopeptide A released from fibrinogen by thrombin after 30 min with transferrin at 0.2, 1 and 5 μM (RP-HPLC) came out at 1.2 fold; the increase of fibrinopeptide B released from fibrinogen by thrombin after 30 min with transferrin at 0.2, 1 and 5 μM (RP-HPLC) was 4.2 fold.
“human α-thrombin (from UniProt P00734 364-622) (enzyme)” registered a Kd with apo-transferrin [2] of 7.7 nM. In the test with apo-transferrin [3], the stoichiometry N (transferrin per thrombin (molar ratio)) was found to be 1.

B1: fibrinogen (natural protein)
chain 1: ADSGEGDFLAEGGGVRGPRVVERHQSACKDSDWPFCSDEDWNYKCPSGCRMKGLIDEVNQDFTNRINKLKNSLFEYQKNNKDSHSLTTNIMEILRGDFSSANNRDNTYNRVSEDLRSRIEVLKRKVIEKVQHIQLLQKNVRAQLVDMKRLEVDIDIKIRSCRGSCSRALAREVDLKDYEDQQKQLEQVIAKDLLPSRDRQHLPLIKMKPVPDLVPGNFKSQLQKVPPEWKALTDMPQMRMELERPGGNEITRGGSTSYGTGSETESPRNPSSAGSWNSGSSGPGSTGNRNPGSSGTGGTATWKPGSSGPGSTGSWNSGSSGTGSTGNQNPGSPRPGSTGTWNPGSSERGSAGHWTSESSVSGSTGQWHSESGSFRPDSPGSGNARPNNPDWGTFEEVSGNVSPGTRREYHTEKLVTSKGDKELRTGKEKVTSGSTTTTRRSCSKTVTKTVIGPDGHKEVTKEVVTSEDGSDCPEAMDLGTLSGIGTLDGFRHRHPDEAAFFDTASTGKTFPGFFSPMLGEFVSETESRGSESGIFTNTKESSSHHPGIAEFPSRGKSSSYSKQFTSSTSYNRGDSTFESKSYKMADEAGSEADHEGTHSTKRGHAKSRPVRGIHTSPLGKPSLSP
chain 2: QGVNDNEEGFFSARGHRPLDKKREEAPSLRPAPPPISGGGYRARPAKAAATQKKVERKAPDAGGCLHADPDLGVLCPTGCQLQEALLQQERPIRNSVDELNNNVEAVSQTSSSSFQYMYLLKDLWQKRQKQVKDNENVVNEYSSELEKHQLYIDETVNSNIPTNLRVLRSILENLRSKIQKLESDVSAQMEYCRTPCTVSCNIPVVSGKECEEIIRKGGETSEMYLIQPDSSVKPYRVYCDMNTENGGWTVIQNRQDGSVDFGRKWDPYKQGFGNVATNTDGKNYCGLPGEYWLGNDKISQLTRMGPTELLIEMEDWKGDKVKAHYGGFTVQNEANKYQISVNKYRGTAGNALMDGASQLMGENRTMTIHNGMFFSTYDRDNDGWLTSDPRKQCSKEDGGGWWYNRCHAANPNGRYYWGGQYTWDMAKHGTDDGVVWMNWKGSWYSMRKMSMKIRPFFPQQ
chain 3: YVATRDNCCILDERFGSYCPTTCGIADFLSTYQTKVDKDLQSLEDILHQVENKTSEVKQLIKAIQLTYNPDESSKPNMIDAATLKSRKMLEEIMKYEASILTHDSSIRYLQEIYNSNNQKIVNLKEKVAQLEAQCQEPCKDTVQIHDITGKDCQDIANKGAKQSGLYFIKPLKANQQFLVYCEIDGSGNGWTVFQKRLDGSVDFKKNWIQYKEGFGHLSPTGTTEFWLGNEKIHLISTQSAIPYALRVELEDWNGRTSTADYAMFKVGPEADKYRLTYAYFAGGDAGDAFDGFDFGDDPSDKFFTSHNGMQFSTWDNDNDKFEGNCAEQDGSGWWMNKCHAGHLNGVYYQGGTYSKASTPNGYDNGIIWATWKTRWYSMKKTTMKIIPFNRLTIGEGQQHHLGGAKQAGDV
notes: fibrinogen alpha chain; fibrinogen beta chain; fibrinogen gamma chain; the SPR and native gel methods say only 'fibrinogen'; also called factor I; source: bought: Cayman (16088); copies: + +
As to B1, the “stoichiometry N” value with apo-transferrin [3] is 4 apo-transferrin per fibrinogen (molar ratio).

B2: FX18 (peptide)
peptide: RRNHSCEPCQTLAVRSYR
notes: source: synthetic peptide
In the test with apo-transferrin [4], B2 registered a Kd of 143 nM, an off-rate (koff) of 0.0004 s⁻¹ and a kon of 2800 M⁻¹ s⁻¹.

B3: human α-FXIIa (enzyme)
chain 1: IPPWEAPKEHKYKAEEHTVVLTVTGEPCHFPFQYHRQLYHKCTHKGRPGPQPWCATTPNFDQDQRWGYCLEPKKVKDHCSKHSPCQKGGTCVNMPSGPHCLCPQHLTGNHCQKEKCFEPQLLRFFHKNEIWYRTEQAAVARCQCKGPDAHCQRLASQACRTNPCLHGGRCLEVEGHRLCHCPVGYTGAFCDVDTKASCYDGRGLSYRGLARTTLSGAPCQPWASEATYRNVTAEQARNWGLGGHAFCRNPDNDIRPWCFVLNRDRLSWEYCDLAQCQTPTQAAPPTPVSPRLHVPLMPAQPAPPKPQPTTRTPPQSQTPGALPAKREQPPSLTRNGPLSCGQRLRKSLSSMTR
chain 2: VVGGLVALRGAHPYIAALYWGHSFCAGSLIAPCWVLTAAHCLQDRPAPEDLTVVLGQERRNHSCEPCQTLAVRSYRLHEAFSPVSYQHDLALLRLQEDADGSCALLSPYVQPVCLPSGAARPSETTLCQVAGWGHQFEGAEEYASFLQEAQVPFLSLERCSAPDVHGSSILPGMLCAGFLEGGTDACQGDSGGPLVCEDQAAERRLTLQGIISWGSGCGDRNKPGVYTDVAYYLAWIREHTVS
notes: factor XIIa heavy chain, cut product of human factor XII; factor XIIa light chain (protease domain), cut product of human factor XII; also called factor XIIa; source: bought: Enzyme Research Laboratories (HFXIIa 1212a)
For B3, in the test with apo-transferrin [2] (both partners purified), the Kd was 13.9 nM, the koff was found to be 0.0025 s⁻¹ and the association rate constant (kon) was determined as 180000 M⁻¹ s⁻¹. Besides, the “stoichiometry N” value with apo-transferrin [3] was 1 transferrin per FXIIa (molar ratio).

B4: RCL19 (peptide)
peptide: EAAASTAVVIAGRSLNPNR
notes: from the reactive center loop (RCL) of antithrombin; also called synthetic peptide from the RCL of AT; source: synthetic peptide
In the test with apo-transferrin [4], B4 returned a Kd of 556 nM, a dissociation rate constant (koff) of 0.001 s⁻¹ and a kon of 1800 M⁻¹ s⁻¹.

B5: TH16 (peptide)
peptide: RIGKHSRTRYERNIEK
notes: source: synthetic peptide
In the test with apo-transferrin [4], B5 registered a Kd of 97 nM, a koff of 0.0003 s⁻¹ and a kon of 3100 M⁻¹ s⁻¹.

Usually Kd stands for the equilibrium constant for the complex coming apart. A higher Kd goes with a looser complex. What is called koff is the rate constant with which the complex falls apart. A word on the kon: it is the rate constant with which the complex forms. Low values mean slower complex formation, high ones faster complex formation. The stoichiometry N is the number of molecules, sites or subunits per partner or assembly.
